Laboratory results from publication PMC4820125, “Aptamer-Assisted Detection of the Altered Expression of Estrogen Receptor Alpha in Human Breast Cancer”.

B1: ERaptD4 (ssDNA)
DNA: ATACCAGCTTATTCAATTCGTTGCATTTAGGTGCATTACGGGGGTTATCCGCTCTCTCAGATAGTATGTGCAATCA
B2: ERaptD8 (ssDNA)
DNA: ATACCAGCTTATTCAATTCGAGTAACGCTGTCTCTTCCGAATCGGGGGAAGGCGGAGGAGATAGTATGTGCAATCA
B3: ERaptD3 (ssDNA)
DNA: ATACCAGCTTATTCAATTGGGGATAACGTCGTCACGTCGTGTCATCATTGGTTCAGTCAGATAGTATGTGCAATCA

Assays:
PR-DBD = PR-DBD (human (cDNA from MCF-7), UniProt P06401 567-639); test: aptamer ELISA; negligible binding; ITC: 10 mM Tris-HCl pH 8.0, 25 C; aptamer binding buffer (SELEX): 20 mM Tris-HCl pH 7.6, 120 mM NaCl, 5 mM KCl, 1 mM MgCl2, 1 mM CaCl2, RT (ca. 27 C); ELISA: 2; conditions: protein: recombinant; tags: His (pET100/D-TOPO)
Sequence of PR-DBD (P06401 567-639): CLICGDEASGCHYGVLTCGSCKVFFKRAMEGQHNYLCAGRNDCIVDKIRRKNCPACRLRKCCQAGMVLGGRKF

PR-LBD = PR-LBD (UniProt P06401 675-933); test: as above; conditions: protein: commercial; tags: GST
Sequence of PR-LBD (P06401 675-933): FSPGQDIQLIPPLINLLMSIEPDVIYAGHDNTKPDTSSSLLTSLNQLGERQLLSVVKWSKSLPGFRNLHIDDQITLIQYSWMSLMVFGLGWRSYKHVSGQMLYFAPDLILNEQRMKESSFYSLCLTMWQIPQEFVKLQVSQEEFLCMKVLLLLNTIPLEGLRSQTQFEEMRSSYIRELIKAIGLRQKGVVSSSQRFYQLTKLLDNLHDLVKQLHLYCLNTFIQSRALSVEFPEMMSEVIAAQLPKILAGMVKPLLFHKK

ERα full length = ERα full length (UniProt P03372 1-595); test: aptamer ELISA; 500 nM aptamer; ITC: 10 mM Tris-HCl pH 8.0, 25 C; aptamer binding buffer (SELEX): 20 mM Tris-HCl pH 7.6, 120 mM NaCl, 5 mM KCl, 1 mM MgCl2, 1 mM CaCl2, RT (ca. 27 C); ELISA: 2; conditions: protein: commercial, chain copies: 2
Sequence of ERα full length (P03372 whole entry): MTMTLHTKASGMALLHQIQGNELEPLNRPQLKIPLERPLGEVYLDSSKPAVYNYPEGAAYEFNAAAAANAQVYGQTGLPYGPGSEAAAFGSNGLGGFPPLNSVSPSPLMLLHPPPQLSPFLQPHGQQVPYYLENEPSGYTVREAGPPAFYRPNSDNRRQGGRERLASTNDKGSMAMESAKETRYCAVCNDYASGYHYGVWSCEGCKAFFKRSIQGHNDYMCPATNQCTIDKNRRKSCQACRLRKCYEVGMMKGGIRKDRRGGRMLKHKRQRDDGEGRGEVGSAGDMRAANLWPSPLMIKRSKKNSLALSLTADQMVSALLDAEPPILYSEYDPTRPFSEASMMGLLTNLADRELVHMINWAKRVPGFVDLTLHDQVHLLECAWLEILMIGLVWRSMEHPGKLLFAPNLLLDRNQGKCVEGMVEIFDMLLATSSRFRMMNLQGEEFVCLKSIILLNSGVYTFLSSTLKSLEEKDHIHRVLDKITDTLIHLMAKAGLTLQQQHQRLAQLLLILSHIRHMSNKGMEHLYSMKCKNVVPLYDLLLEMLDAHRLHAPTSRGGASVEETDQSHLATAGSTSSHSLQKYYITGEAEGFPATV

Binder | binding result (PR-DBD) | binding result (PR-LBD) | binding signal (ERα full length) | binding signal (ERα full length; label: biotin)
B1 | no binding | no binding | 78.5 % of anti-ERα antibody signal | 
B2 |  |  |  | 50.5 % of anti-ERα antibody signal
B3 |  |  |  | 47.3 % of anti-ERα antibody signal
